Data: publication PMC3448610, “Characterization of Molecular Determinants of the Conformational Stability of Macrophage Migration Inhibitory Factor: Leucine 46 Hydrophobic Pocket” (PLoS ONE, 2012)

Target: the molecule itself
Assay: AUC; sedimentation velocity, 50,000 rpm, 20°C, PBS 1X pH 7.4, protein 5-50 µM (15 µM in Figure 3); c(s) analysis with SEDFIT; oligomeric state of the protein with itself

Protein | stoichiometry N
L46A human Macrophage Migration Inhibitory Factor (natural protein, UniProt P14174 1-115, looked up, initiator methionine cleaved, measured mass 12303 g/mol; numbers count on: the mature protein starting at Pro-1 (without the initiator methionine); No tag is named; also called L46A huMIF; L46A MIF; source: more than 95% pure) MPMFIVNTNVPRASVPDGFLSELTQQLAQATGKPPQYIAVHVVPDQAMAFGGSSEPCALCSLHSIGKIGGAQNRSYSKLLCGLLAERLRISPDRVYINYYDMNAANVGWNNSTFA | 3
L46G human Macrophage Migration Inhibitory Factor (natural protein, UniProt P14174 1-115, looked up, initiator methionine cleaved, measured mass 12289 g/mol; numbers count on: the mature protein starting at Pro-1 (without the initiator methionine); No tag is named; also called L46G huMIF; L46G MIF; source: more than 95% pure) MPMFIVNTNVPRASVPDGFLSELTQQLAQATGKPPQYIAVHVVPDQGMAFGGSSEPCALCSLHSIGKIGGAQNRSYSKLLCGLLAERLRISPDRVYINYYDMNAANVGWNNSTFA | 3
L46F human Macrophage Migration Inhibitory Factor (natural protein, UniProt P14174 1-115, looked up, initiator methionine cleaved, measured mass 12379 g/mol; numbers count on: the mature protein starting at Pro-1 (without the initiator methionine); No tag is named; also called L46F huMIF; L46F MIF; source: more than 95% pure) MPMFIVNTNVPRASVPDGFLSELTQQLAQATGKPPQYIAVHVVPDQFMAFGGSSEPCALCSLHSIGKIGGAQNRSYSKLLCGLLAERLRISPDRVYINYYDMNAANVGWNNSTFA | 3
